Data reported in the DeepSol protein solubility set.

Assay: soluble on expression in E. coli; label from the status in PepcDB or PDB records

Row | Sequence | soluble on expression in E. coli
1 | MSLNNIMKVVIIGAGPAGVYSALTLSKHAKVTLIEREEKLGGTCVLYGCIPTKSILSQLIISRQASNMSLNTLREYALTSINTISKSLEHLLNSHGIEVIHANGFLRSSMVHASNTSLAADKVLVSTGTRRERLGKVKFTEDLAYTNEDYNKVVIVGGDAGGIELGWMMKKLGKEVHLIDKNDLLLQNIDRTLSEIVTNFLSQIGIKLYLGKKVSKIDETSVTLEDNQKISGDAVFVTFGRKPNIEGFEEIPHEKYIYVDEYLRTQIPNIYAAGDIIGTFTAHEAIYAGIIAAKNMLGEKREFIVEGIPKVIYIYPQIAYVGTTNGNCVTFNTLNLTRTIVERESEGFLKICERDNRVIGAVAFMPYAEDVISLISVLIRYQISLKDTIDLVMPHPSYLEAITEALNMLQSKGEGHHHHHH | not soluble
2 | MSLNNTKQPVVILVGPTAVGKTNLSIQLAKSLNAEIISGDSMQIYKGMDIGTAKITEQEMEGVPHHLIDILDPQDSFSTADYQSLVRNKISEIANRGKLPMIDGGTGLYIQSELYDYTFTEEANDPVFRESMQMAAEREGADFLHAKLAAADPEAAAAIHPNNTRRVIRALEILHTSGKTMSQHLKEQKRELLYNAVLIGLTMDRDTLYERINQRVDLMMQSGLLPEVKRLYDKNVRDCQSIQAIGYKELYAYFDGFVTLSDAVEQLKQNSRRYAKRQLTWFRNKMQVTWFDMTPPVDMELKKKEIFTHIAGKLELEGHHHHHH | soluble
3 | MSLNNYPFASMRDCFDMSAYFVVGPQDCKGRPVTDVVDDALRGGATFIQLRAKNADAKDITEMARDIAQVIKNSGKSDSVAFVIDDRVDVVWQARDKGIKVDGVHIGQTDMEPQEARALLGEDAIVGLSAETESLVKLINELPSGCIDYIGAGPLHVSTTKPEASVGGNDGSGHTLDEEQINAICAASEFPVVVGGGVHADDMEMLARSKAAGWFVVSAIAGADDPEAATREMVTRWKAVRGDAEGHHHHHH | soluble
4 | MSLNPKAKFAVIDDLETSRLHISHILQEDGFTVDLFDSATQFLLMKDEILDYAGLIIDIHMPGYNGYELAETIHAMFGTSAPPFIFISASPESIRHDRFNTEHMWQGFAKPMDKNRFIDSIRVLSDKSSLKTEAFEPASVLLVEDEPINAEVVKTMLERNGHTVEVATTGAAALHLATTVPFNLILMDINLPDMSGIETTRCIKAQGVDTEIVALTGNAYEEDKLKTKEAGMSYHLVKPVMYHELNNVIKLALRVAHEGHHHHHH | soluble
5 | MSLNPVNGAILSIEISHPNGFEIDENISAYHDAEYYMDRIFDSGNYDSLIVLTSIKILSQHWEIDNDMVVTSQSIRQLAIDTINSKAESGTIKNYWFKLQSLCEEFKNLSQETLSLSVFDNQVLTLNVNGHGIFRKSAFFESFANQKLNSADGKLMLIFNKFETFISRKSYHKLHEELLQLRKISANEITNLFTKHIEGKISTNEIQTILKDLEQIPGIVEIVKSLIGSSGFELIVDANSISSKELGAFHKISTVMIFKNIMETHKTLLLDLVVLFLTCETNDQIVEFVNQIRATLVQYDVMEVVFTTCLNKGEVETKNMGQVQNSIFWSSVVATHSQLKRLIESLQLNDGYEYFYNNVLPDDYLVDVVIELINNKEYFFLQKKFLTKLNQENKVEKLLVGLIYLFNNDVKSFYKIFNDYSNFQNFTENKIKNLNQDVNLQKFIEALLSNPSKSQYFHGLSKLVQSQIKTNDNKSQQEEHCFIEIASDFETLAIENEGHHHHHH | soluble
6 | MSLNQSYFNLLGNITWLWMNSSLHKEWSCELLARNVIPAIENEQYMLLIDNGIPIAYCSWADLNLETEVKYIKDINSLTPEEWQSGDRRWIIDWVAPFGHSQLLYKKMCQKYPDMIVRSIRFYPKQKELGKIAYFKGGKLDKKTAKKRFDTYQEELATALKNEFNFIKKEGHHHHHH | soluble
7 | MSLNRRHTIKHNFPIVGHFRYLLEKIGPELRQYIVANNREELPFNRRQRSWIYASSKQENNYQGFGTDQDQNSPGFVFIKPSMFSYAVKEGHPNKKKPDFVPCAKIMGAYNKRRRPYRPYSIINISGMSYGSLSARAVESLNKGALKAGCYQNTGEGSLAPHHKHGADIMFHFGTGYFGVRDEHGNFSMSKLKALVEANPCIRAIDLKLSQGAKPGKGGVLPASKITQEIADIRGLPMGKDVISPAYHSVFSNVPEMMDFIENIAQETGLPVGFKSAVGKMEMWVELADRMLEKGYGPDFITIDGGEGGTGAAPPAFADHVSLPFVYAFSNVYKIFAERGLTDRIVFAASGKLGFPESSLMAFALGADVIHVAREAMMSIGCIQAQVCHNNTCPSGVATQNKWLQSGIDVPLKADRLYNYIKNLRKEVLEITHACGYEHPSQMTMTDIDISMGDNNLTMPLVDAYKYNKIPVNFESMQKLADEGHHHHHH | not soluble
8 | MSLNSEWGKFALWLKHQRISPAELLVPQPQEKLTGWSDPRISQERILGLLARGHSLALAVDKWQRAGLWILTRGDADYPVRLKNRLRTDAPPVLFGCGNKALLQAEGMAIVGSRDAPTDDLRYTQQLAAKLAQQGICVISGGARGIDECAMASALEAGGTAVGVLADSLLKTSTLVKWREGLIAGNLVLISPFYPEVRFTVGNAMARNKYIYCLAESAMVVRAGMTGGTITGAMEALKHQWLPVQVKPNQDMQSANSRLVENGASWSAEQAENVTIRLPDVPGLMYDRAEGHHHHHH | soluble
9 | MSLNTEIEMNELLEKAKKIKCLICDVDGVLSDGLLHIDNHGNELKSFHVQDGMGLKLLMAAGIQVAIITTAQNAVVDHRMEQLGITHYYKGQVDKRSAYQHLKKTLGLNDDEFAYIGDDLPDLPLIQQVGLGVAVSNAVPQVLEFADWRTERTGGRGAVRELCDLILNAQNKAELAITGYLKQEGHHHHHH | soluble
10 | MSLNTTFTKEDGTEVVIPFNGSQNGHPENEEPEVEEAAEPSSSVETLCGATRGDIIVMKHTTKALTELIERLLHSDEFEVRRCSNGQIISQGRCNGTTPGNGIGGGGASSEELEKALKDRDAARAEADKLHANYATLFASFNTVREAANDIRGEYEDARDKLKLAAAEVDEWQAKFLAVKDNANSELERASVEYDDLLRSHDENTKGLRLRVKRQEIELSSKNDEIKVLTNRVSELSQICDQLLNDVDVSDGMSVISTDA | not soluble
11 | MSLNVQGNLFRPLTLPNGLSLENRFVLSPMVTNSSTSEGFVTDDDIAYAVRRAKSAPLQITGAAYITEYGQLFEYGFSVSKDEDIPGLTKLAKAMKSKGAKAVLQLTHAGRFSSHTLARHGYVYGPSPMQLQSPYPHQVKELTHKDILRIIDEYVQATRRAIQAGFDGVEISSAQRLLIQTFFSTFSNQRKDEYGPQTLTNRCRLGLEVFKAVQKVIREEAESDFILGFRATPEETRGSQIGYSIEEFMEFLEKILAIAQVDYLAIASWGHDVFRNTIRSEGVYKGQLVNQVIFEHFGDRVPIMATGGINSASKVFEALQHAHMIGASTPLVVDPEFLQKIKAKCSDQINLRIKVSDLEGLAIPKEGHHHHHH | not soluble
12 | MSLNVVGYVRLSRDEDKENYSSIITQKNIIEEYSKNKNWTVNRIYVDDNCSGYTFERPEFLKMMYEIKERKIDVIVAKDLSRIGRNNGKVLVFIDKLKEKGIRLILVEEATGGLDLLEDNYDILGIKTWYNEMYVKDISRKIRASMHLKQKKGKEGHHHHHH | soluble
13 | MSLNVVNSIFSKLSIAPMIDWTNSPFRTLMRLLAPNALLYTEMQTTGAVQNNPDRALYFNSVEHPLAIQLGGADKSALVKCAIIAEQKGFNEINLNLGCPSDKVQAGRFGACLMKEPEHVADCIRAIKQVVGIPVTAKTRIGIDNQDSYEFFRSFSLHLVEAGCDKLIIHARKAWLNGLNPKQNRTIPPVNYDYVYELKKEIPHIFITINGNILTVEEINNHLKHVDGVMLGRLACDNPYQIAEIHQALYPEFIKIKRSQLLMNYLDYWFDQSRANLSLSILVKPLFNLAFGLPGAKHWKKKLMNIIQEKNTSGFSELIQYLLNLEAINQVEEGHHHHHH | soluble
14 | MSLNYTELEENIKKNNIENVYIMCGFNEKLMKESINKILKKSISQDFESLNYSVFDGNEVEFEDILNACETVPFMSEKRMVVVYRAGFLNDNSSGSNKNSDKLIKDIEKYVPNVPKHCILVMYYVFDNTREKPSYRVKKFDKKVCVVEFSKLRGMQFQKKVKDVFAEKGKQIGKTELNYFCSRVENNMDIVYNEIEKLCCYTLEKEITKESIDNLLQPNETDDIFNLVDYISQSKPEMAITVLNEIMYKGVKANSILYMVERQFKLMLSIKIGIENKQSKEALVKELKLNPYVCDKMINECKRFTMKKILKSLDICLRTEKELKSVSGDPKFKMEVLIINLAIEGHHHHHH | soluble
15 | MSLPFPTIPPIAGVEIATGRAGFYKHEREDLLLMRFAEGTSAAGVFTRHGVGSAPVDWCKRQLAATGGADVRALVVNAGCANSFTGKPGADAVRRVATAVGKRFDCRQRDVMMASTGVIGVILDDSKITARLPEVESRLKADAWAEAGRAIMTTDTFPKGAYATAVIDGHEVKIAGIAKGSGMIAPDMATMLAFVATDAAIAPAALQTLVSLYTRTTFNCVTVDGDRSTNDTLLLFATGQSGAPKIHRAGDKRLADFREKLEGVLLDLALQLVKDGEGATKFVKITVNGAESPASARKIARTIAESPLVKTAFAGEDANWGRIVMAVGRADEPVAREKISVKFGDLYAARDGLISAEYDEAKMSAYVKNQAFEVSVDVGVGRGSATVWTCDLTKQYVAINGDYRSEGHHHHHH | not soluble
16 | MSLPPRPYDNRPPTGVRAKPVINLNIEYTSCNDSVAPACSTRPMLIENMINQRNVNINVLEGYDPKSKSVINQHSIYHLYEFESKTRFLDRIPRPRVSRFTELKTRFLCCRYVLCAIDDVMQKQKPMELMAIRLNGDIYIGANKSMDLQTDKKTQEAAFGGLNFAMKVTRESDQKILKKHHSVVKQLRIENTRNSMSMSIFVSSVARAFDQRGNVVELKTVGSKVMGKVQNLSRLKARDWWLRALLSGADRIVYGLRMDNMKVNEIHEAQLTDFTKGHFRFDGAKLFSEIFKIFSTIDKIIGAEGDMCMVKSDGSTPISVTLTTRESLKRSPFW | not soluble
17 | MSLPTEMHHNLGAEKRSAVATTIDSFKERSQKVRALSDPNVRFVPFFGSSEWLRFDGAHPAVLAEKYNRSYRPYLLGQGGAASLNQYFGMQQMLPQLENKQVVYVISPQWFSKNGYDPAAFQQYFNGDQLTSFLKHQSGDQASQYAATRLLQQFPNVAMKDLVQKLASKEELSTADNEMIELLARFNERQASFFGQFSVRGYVNYDKHVAKYLKILPDQFSYQAIEDVVKADAEKNTSNNEMGMENYFYNEQIKKDLKKLKDSQKSFTYLKSPEYNDLQLVLTQFSKSKVNPIFIIPPVNKKWMDYAGLREDMYQQTVQKIRYQLESQGFTNIADFSKDGGEPFFMKDTIHLGWLGWLAFDKAVDPFLSNPTPAPTYHLNERFFSKDWATYDGDVKEFQEGHHHHHH | soluble
18 | MSLQAAGNAPAKISMLLTDGAIGQITKPFPEGGPSAKEVWERETGIEIDIVGAPAEDIFKKVMQDVTTGGGTFDIYTGPWNSTGDLVSSGGAVNCSDFVAKYQPDWADPERGTPTPEMEKLLYTYAGDYYSFSLDGDFQTWFYLKGLYEDPRVQDAFLSETGVALKTPDTWEEVDRISKFFTGKDFGNGPMYGNGNLMSPFWGLATFYARFASMDFPNYHFFDEDGNPNLNSDLGIQCAEEHVRSFEWCPPDALTFTWAEAYATMWNLQIPHTAIYTNLVKFGDGYNADGTPKSKATGMIGSHLPVGRRFGDQLNRRSVLYYHITAWISSQSQHPEAVYLFLQWLSSTRTYTWMAGNPGGYFDPMQQANFKEPLVASTYHPYAMETIPQTIARSVPSINFAGQTALDNALDEEIQAAITGQKSAREAMDAAQSKWERIIKRQEGHHHHHH | not soluble
19 | MSLQADFNRPVLAVDTGTSRLSLALRADGETRLFHQEVGSRQSELILPEIRTLFRDAGITAADLGAVVYAQGPGAFTGLRIGIGVAQGLATPFDTPLIGVPSLDAAASLPPPQSCILAATDARMGEVFYAWFDTLNCHRLSDYQVGRAADIRLPEGCAFSDGIGSAFALEEAPPFSGRPDMPTAADFLALAAKGGYPAVHAAHAGLLYVRNKIALTAKEQAERRAEGHHHHHH | soluble
